The text below walks through data of article PMC10828404.

In the experiment the target is ACE2 receptor on ACE2-expressing HEK 293T cells (UniProt Q9BYF1). In words: flow cytometry on cells. (In general: A flow cytometer gives signals particle by particle.)
Chain of UniProt Q9BYF1 (Q9BYF1 18-805): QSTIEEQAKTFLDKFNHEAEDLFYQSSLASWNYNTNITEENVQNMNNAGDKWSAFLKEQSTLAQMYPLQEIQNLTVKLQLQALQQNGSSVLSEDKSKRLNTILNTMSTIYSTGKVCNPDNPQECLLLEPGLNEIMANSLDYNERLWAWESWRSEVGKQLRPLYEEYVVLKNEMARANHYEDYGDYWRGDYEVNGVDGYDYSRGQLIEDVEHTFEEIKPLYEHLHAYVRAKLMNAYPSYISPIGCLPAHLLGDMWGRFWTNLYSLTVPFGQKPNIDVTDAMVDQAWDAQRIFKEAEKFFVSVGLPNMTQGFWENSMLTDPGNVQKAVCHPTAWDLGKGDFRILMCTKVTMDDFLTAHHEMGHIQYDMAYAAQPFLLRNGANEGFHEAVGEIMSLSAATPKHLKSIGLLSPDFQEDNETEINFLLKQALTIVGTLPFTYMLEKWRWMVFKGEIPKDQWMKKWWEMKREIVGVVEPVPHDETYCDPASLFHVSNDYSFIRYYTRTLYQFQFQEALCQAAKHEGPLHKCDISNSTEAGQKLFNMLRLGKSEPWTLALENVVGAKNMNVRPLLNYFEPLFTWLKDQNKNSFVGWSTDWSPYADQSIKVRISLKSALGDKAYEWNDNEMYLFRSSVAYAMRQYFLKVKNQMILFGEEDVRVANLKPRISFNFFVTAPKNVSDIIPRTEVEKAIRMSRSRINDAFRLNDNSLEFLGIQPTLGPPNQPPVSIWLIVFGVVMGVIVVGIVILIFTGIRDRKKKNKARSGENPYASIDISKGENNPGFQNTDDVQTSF

In turn, “DNA-VLP-Cy5-30x (icosahedral DNA origami displaying 30 copies of the SARS-CoV-2 RBD and 5 copies of Cy5)” showed a fold increase in median fluorescence intensity (corrected for Cy5 brightness per RBD) against monomeric RBD-Cy5 of 10 fold.
